Data set [1] addresses T1, 2PT-NBD1 (human CFTR nucleotide-binding domain 1, residues 387-646, with S492P, A534P, I539T) (human, UniProt P13569 388-646, biotinylated for the ELISA (sites not given)).
T1 construct: N-terminal His6-SUMO tag removed with Ulp1; In the T2a-T4 and T27 crystals the domain was cut by papain or subtilisin
Description: isothermal titration calorimetry, nanobody titrated into 2PT-NBD1 at 20 °C, one-site model. As for the experimental part: (§1) Isothermal titration calorimetry (ITC) was used to characterize the thermodynamic parameters of the binding (FIG. 1e and FIG. 9). […] These KD values are similar to those measured for other in vivo matured camelid heavy-chain antibodies interacting with their ligands^{[20]}. The thermodynamic parameters of the interaction of nanobodies with 2PT-NBD1 were determined based on these ITC measurements (FIG. 1e and FIG. 9).
(§2) Interactions between nanobodies and 2PT-NBD1 was carried out on NanoITC system (TA Instruments) in 0.165 ml cells at 20° C., 300 rpm syringe stirring. Proteins were extensively dialyzed in 20 mM Hepes buffer pH 7.5, 150 mM NaCl, 10% (w/v) glycerol, 10% (w/v) ethylene glycol, 2 mM ATP and 3 mM MgCl₂ for 16 h at 4° C. Heat of dilution from control experiments of each nanobody titrated into buffer was subtracted from the titration into 2PT-NBD1. Data were integrated analyzed with Origin 7.0 software (Origin Lab Corp.).
A general note: ITC needs no label: the signal is the heat of the interaction.

The target of data set [2] is T1, 2PT-NBD1 (human CFTR nucleotide-binding …). Description: cell-based or functional assay.
Data set [3] concerns the target Purified human wt-CFTR (His10-SUMO*-CFTRFLAG-EGFP), PKA phosphorylated (human, UniProt P13569 1-1480, PKA phosphorylated (sites not given)). Description: cell-based or functional assay.
Data set [4] concerns the target T1, 2PT-NBD1 (human CFTR nucleotide-binding …). Description: ELISA, biotinylated 2PT-NBD1 on avidin-coated plate, nanobody titrated, anti-His detection; column head 'pEC50 (M)'. As for the experimental part: (a) Nanobody binding to 2PT-NBD1 measured by ELISA. Biotinylated 2PT-NBD1 was immobilized on avidin-coated plates and incubated with increasing concentration of each nanobody. Binding of nanobody was followed by immunodetection of the His-tag (see Methods). Representative curve of 3 independent experiments is shown. Error bars represent the standard deviation (SD) of duplicates. Data were normalized to maximum signal for each nanobody separately. (b) Nanobody binding to F508del-2PT-NBD1 measured by ELISA as described in panel a. (c) Nanobody T4 binding to 2PT-NBD1 and F508del-2PT-NBD1. Data were normalized to maximum signal of T4 binding to 2PT-NBD1. (d) Nanobody T8 binding to 2PT-NBD1 and F508del-2PT-NBD1. Data were normalized to maximum signal of T8 binding to 2PT-NBD1.
For dose-response assays, Nunc MaxiSorp 96-well plates (ThermoScientific), were coated with 5 μg/ml NeutrAvidin Biotin-Binding protein (ThermoScientific) overnight at 4° C. and blocked 2 h at room temperature (RT) with 2% milk in phosphate-buffered saline (PBS). Each new reagent addition was preceded by three washes with 200 μl of NBD1 buffer (20 mM HEPES pH 7.5, 150 mM NaCl, and 10% (w/v) glycerol, 10% (w/v) ethylene glycol, 2 mM ATP, 3 mM MgCl₂). Then, biotinylated purified NBD1 proteins at 5 μg/ml were immobilized 30 min at RT followed by 1 h RT incubation with 100 μl various concentrations (0-20 μg/ml) of purified nanobodies. Signal detection was followed using His-tag specific antibody (Invitrogen, catalogue number: MA1-135, 1:3000 dilution) to detect the nanobodies and secondary antibody anti-mouse coupled to horse radish peroxidase (HRP) (Millipore, catalogue number: AP308P, 1:5000 dilution). 50 μl of 1-Step UltraTMB-ELISA (ThermoScientific) was used as a substrate for the peroxidase and intensity of the reaction was proportional to absorbance measured at 450 nm with SynergyMx (BioTek) after addition of 50 μl H₂SO₄ at 1M.
In general terms: An ELISA detects its analyte on a solid surface through an enzyme-linked reagent.

Data set [5] has the same target. Description: ITC, nanobody titrated into 2PT-NBD1 at 20 °C, one-site model. As for the experimental part:
as §1, §2

T1 sequence (P13569 388-646 V470M/S492P/A534P/I539T limits assumed): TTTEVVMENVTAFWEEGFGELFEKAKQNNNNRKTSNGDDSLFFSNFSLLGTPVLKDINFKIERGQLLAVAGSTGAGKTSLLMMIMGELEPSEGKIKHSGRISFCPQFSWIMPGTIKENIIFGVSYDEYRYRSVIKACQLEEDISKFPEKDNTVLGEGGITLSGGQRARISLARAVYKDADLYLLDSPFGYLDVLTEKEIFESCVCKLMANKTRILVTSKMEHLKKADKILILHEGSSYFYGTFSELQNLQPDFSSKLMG
Sequence of Purified human wt-CFTR (His10-SUMO*-CFTRFLAG-EGFP), PKA phosphorylated (P13569 whole entry): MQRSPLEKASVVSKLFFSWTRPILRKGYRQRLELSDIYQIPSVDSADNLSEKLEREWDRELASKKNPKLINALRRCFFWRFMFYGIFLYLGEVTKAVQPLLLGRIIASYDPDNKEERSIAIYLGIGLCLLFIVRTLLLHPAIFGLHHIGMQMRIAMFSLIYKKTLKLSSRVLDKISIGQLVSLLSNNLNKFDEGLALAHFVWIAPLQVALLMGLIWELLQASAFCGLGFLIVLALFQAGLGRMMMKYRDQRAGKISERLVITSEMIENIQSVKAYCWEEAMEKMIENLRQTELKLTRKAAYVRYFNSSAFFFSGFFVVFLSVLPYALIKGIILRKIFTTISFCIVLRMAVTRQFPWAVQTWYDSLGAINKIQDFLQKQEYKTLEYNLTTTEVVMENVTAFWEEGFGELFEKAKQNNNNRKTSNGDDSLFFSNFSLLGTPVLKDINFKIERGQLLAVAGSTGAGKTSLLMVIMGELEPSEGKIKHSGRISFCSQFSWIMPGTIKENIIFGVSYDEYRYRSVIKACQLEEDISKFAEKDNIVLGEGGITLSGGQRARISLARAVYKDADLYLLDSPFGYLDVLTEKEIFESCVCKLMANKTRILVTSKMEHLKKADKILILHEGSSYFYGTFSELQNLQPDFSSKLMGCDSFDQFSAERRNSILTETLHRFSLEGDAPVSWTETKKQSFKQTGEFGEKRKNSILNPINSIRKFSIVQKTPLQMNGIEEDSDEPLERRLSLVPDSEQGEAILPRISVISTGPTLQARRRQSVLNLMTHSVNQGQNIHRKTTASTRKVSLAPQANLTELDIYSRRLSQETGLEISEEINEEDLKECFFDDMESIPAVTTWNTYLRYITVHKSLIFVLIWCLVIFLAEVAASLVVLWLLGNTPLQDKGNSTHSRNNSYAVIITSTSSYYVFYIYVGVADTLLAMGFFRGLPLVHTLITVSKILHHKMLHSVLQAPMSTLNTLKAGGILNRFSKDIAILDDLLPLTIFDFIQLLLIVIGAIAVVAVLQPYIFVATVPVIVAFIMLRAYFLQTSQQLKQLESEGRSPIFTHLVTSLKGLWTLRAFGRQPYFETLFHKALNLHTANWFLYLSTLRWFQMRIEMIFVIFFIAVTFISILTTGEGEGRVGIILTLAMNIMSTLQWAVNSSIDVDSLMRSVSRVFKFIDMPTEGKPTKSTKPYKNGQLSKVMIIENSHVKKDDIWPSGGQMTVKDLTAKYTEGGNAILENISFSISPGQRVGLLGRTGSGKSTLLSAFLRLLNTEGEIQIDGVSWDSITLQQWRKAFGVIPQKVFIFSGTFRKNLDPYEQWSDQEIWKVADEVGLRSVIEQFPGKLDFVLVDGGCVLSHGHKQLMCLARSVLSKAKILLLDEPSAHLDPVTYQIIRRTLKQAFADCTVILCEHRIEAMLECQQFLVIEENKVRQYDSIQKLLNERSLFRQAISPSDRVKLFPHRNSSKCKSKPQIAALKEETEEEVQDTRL

B1: Nanobody T8 (VHH, not shown: small tags and cut ends)
VHH: QVQLQESGGGLVQPGGSLRLSCAASGSTSSINAMGWYRQAPGKQREPVAISSSGGDTRYAEPVKGRFTISRDNAQNKVYLQMNSLKPEDTAVYYCWLNWGRTSVNSWGQGTQVTVSS
notes: Llama nanobody; also called Nb T8; T8 Nb
B1 had a Kd in data set [1] of 0.039 µM. Further, the “increase of Tm (thermal shift assay, DSF)” value in data set [2] was found to be 9.3 °C. In data set [3], the “ATPase activity (% of PKA-phosphorylated CFTR)” value was determined as 60%. The pEC50 in data set [4] amounted to 7.9. For the same molecule, in data set [5], the ΔG is -41.6 kJ/mol and the ΔH is -64.9 kJ/mol.

B2: Nanobody T2a (VHH, not shown: small tags and cut ends)
VHH: QVQLQESGGGLVQAGGSLRLSCAASGSIFRIDAMGWYRQAPGKQRELVAHSTSGGSTDYADSVKGRFTISRDNAKNTVYLQMNSLKPEDTAVYYCNADVRTRWYASNNYWGQGTQVTVSS
notes: Llama nanobody; also called Nb T2a; T2a Nb
For B2, in data set [1], binding was put at a Kd of 0.054 µM. Further, the “increase of Tm (thermal shift assay, DSF)” value in data set [2] stood at 11.2 °C. The “ATPase activity (% of PKA-phosphorylated CFTR)” value in data set [3] worked out at 50%. Also, the pEC50 in data set [4] was determined as 7.9. In data set [5], the ΔG is -40.6 kJ/mol and the ΔH is -57.7 kJ/mol.

By Kd is commonly meant the concentration at which binding is half-saturated. Lower therefore signals higher affinity. For orientation: pEC50 means the EC50 on a negative log10 scale, so that one unit is a factor of ten.

Source of the values: US20220289837A1 (VIB VZW, published 2022).
